The test system of data set [1] is MEF5/N9 cells. As to the kind of experiment: Transient cotransfection of ER(T2) fusion expression vectors with β-galactosidase reporter; β-galactosidase activity in lysates. The format is cell-based, mouse. Particulars: 10^−8 M 4-OH-tamoxifen, 48 h; relative to Cre-ER(T2) without 4-OH-tamoxifen. Put shortly: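 MEF5/N9 mouse embryonic fibroblasts transiently cotransfected with pCMV-β-gal reporter (100 ng) plus ER(T2) fusion vector (100 ng; 50 ng for Casp9 constructs), then induced with 10^−8 M 4-OH-tamoxifen for 48 h. Lysate β-galactosidase read by chemiluminescence (RLU), mean of two wells, expressed relative to uninduced pCAG-Cre-ER(T2) control set at 1.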

Another data set deals with HeLa cells. The data set is described as follows: Transient cotransfection with β-galactosidase reporter into HeLa cells. The format is cell-based, human. To be noted: 10^−8 M 4-OH-tamoxifen, Cre-ER(T2) as reference, range given jointly for HeLa and Pac2. Here is the method: (§1) Results are shown as mean values of triplicate samples with standard deviation. (b) Transient cotransfection of a β-galactosidase reporter with a Cre-ER(T2), myrCasp8-ER(T2), or Casp9-ER(T2) expression plasmid into murine M5/N9 (black columns), human HeLa (grey columns) or zebrafish Pac2 (open columns) cells. 12 h following transfection, cells were cultured for 36 h with 4-OH-tamoxifen at 10^−8 M and the activity of β-galactosidase in cell lysates was determined. Values obtained from transfections of the Cre-ER(T2) vector were defined as reference. Results are shown as mean values of triplicate samples with standard deviation.
Transient transfections into M5/N9 and HeLa cells were performed with FuGene transfection reagent (Roche) following the manufacturer's instructions. Briefly, semiconfluent cultures in a 24-well plate were transfected in triplicate with 112 ng of the β-galactosidase expression vector CMVβ(Invitrogen) and the same amount of pCAG-Cre-ER(T2), pCAG-Casp8-ER(T2) or pCAG-Casp9-ER(T2) plasmid DNA. After 12 h 4-OH-tamoxifen was added at a concentration of 10^−8 M and the cultures were lysed at 48 h. Cell lysis and the measurement of β-galactosidase activity by chemiluminescence were performed with the β-galactosidase reporter gene assay (Roche) using a Centro LB960 plate luminometer (Berthold). […]

The subject of a further data set is Pac2 cells. The data set is described as follows: Transient cotransfection with β-galactosidase reporter into Pac2 cells. The format is cell-based, zebrafish. To be noted: 10^−8 M 4-OH-tamoxifen, Cre-ER(T2) as reference, range given jointly for HeLa and Pac2. As for the experimental part: as §1
PAC2 zebrafish fibroblasts were grown in Leibowitz's L15—with L-Glutamine medium supplemented with 1% Non-essential Amino Acids, 1% Penicillin/Streptomycin and 10% fetal calf serum (all Gibco) at 28° C. 3×10^6 Cells were transiently transfected with the plasmids CMVβ together with CAG-CreER(T2), CAG-myrCasp8ER(T2) or CAG-Casp9ER(T2) (500 ng each) using nanofectin transfection reagent (PAA). 24 hrs after transfection the medium was replaced and conditioned with 10^−8 M 4-OH-tamoxifen. Before lysis, the cells were incubated for another 24 hrs at 28°. […]

The test system of data set [2] is MEF5/N9 cells. As to the kind of experiment: Transient cotransfection of ER(T2) fusion expression vectors with β-galactosidase reporter; β-galactosidase activity in lysates. In kind it is cell-based, mouse. Particulars: no 4-OH-tamoxifen; transient transfection 50 or 100 ng vector; relative to Cre-ER(T2) without 4-OH-tamoxifen.

B1: Casp9full-ER(T2): full length murine Caspase-9 fused to ER(T2) ligand binding domain, SEQ ID NO: 29 (protein)
chain: MDEADRQLLRRCRVRLVSELQVAELWDALLSRELFTRDMIEDIQQAGSGSRRDQARQLVTDLETRGRQALPLFISCLEDTGQGTLASLLQSGRQAAKQDPEAVKPLDHLVPVVLGPMGLTAKEQRVVKLDPSQPAVGNLTPVVLGPEELWPARLKPEVLRPETPRPVDIGSGGAHDVCVPGKIRGHADMAYTLDSDPCGHCLIINNVNFCPSSGLGTRTGSNLDRDKLEHRFRWLRFMVEVKNDLTAKKMVTALMEMAHRNHRALDCFVVVILSHGCQASHLQFPGAVYGTDGCSVSIEKIVNIFNGSGCPSLGGKPKLFFIQACGGEQKDHGFEVACTSSQGRTLDSDSEPDAVPYQEGPRPLDQLDAVSSLPTPSDILVSYSTFPGFVSWRDKKSGSWYIETLDGILEQWARSEDLQSLLLRVANAVSAKGTYKQIPGCFNFLRKKLFFKTSVEPSAGDMRAANLWPSPLMIKRSKKNSLALSLTADQMVSALLDAEPPILYSEYDPTRPFSEASMMGLLTNLADRELVHMINWAKRVPGFVDLTLHDQVHLLECAWLEILMIGLVWRSMEHPVKLLFAPNLLLDRNQGKCVEGMVEIFDMLLATSSRFRMMNLQGEEFVCLKSIILLNSGVYTFLSSTLKSLEEKDHIHRVLDKITDTLIHLMAKAGLTLQQQHQRLAQLLLILSHIRHMSNKGMEHLYSMKCKNVVPLYDLLLEAADAHRLHAPTSRGGASVEETDQSHLATAGSTSSHSLQKYYITGEAEGFPATA
modifications: fusion protein Casp9full-ER(T2)
As to B1, the “relative β-galactosidase activity in presence of 4-OH-tamoxifen compared to the negative control” value in the data set with MEF5/N9 cells [1] was 7%. Also, the “reduction of β-Galactosidase activity in presence of 4-OHT” value with HeLa cells and in the data set with Pac2 cells was 91-93% throughout. Further, in the data set on MEF5/N9 cells [2], the “basal toxicity: relative β-galactosidase activity compared to the negative control in absence of 4-OH-tamoxifen” value was 62%.

The record behind these values is patent US8530168B2, “Fusion protein comprising a Caspase domain and a nuclear hormone receptor binding domain and methods and uses thereof” (Helmholtz Zentrum Munich Deutsches Forschungszentrum fuer …, priority 2007, dated 2013).
